In the RNAGym collection of RNA variant scans (doi:10.1073/pnas.2313332121):
Variants at the floor of the assay were thinned out.

B1: TPR 5TU (parent)
chain: GGAUCUUCUCGAUCUAACAAAAAAGACAAAUCUGCCACAAAGCUUGAGAGCAUCUUCGGAUGCAGAGGCGGCAGCCUUCGGUGGCGCGAUAGCGCCAACGUUCUCAACUAUGACACGCAAAACGCGUGCUCCGUUGAAUGGAGUUUAUCAUG

Variants of: B1
Experiment: polymerase ribozyme fitness, log enrichment relative to wild type (log ratio); higher = more active; in vitro selection for triplet polymerase activity
In short: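 Fitness compares each genotype's enrichment to that of the wild type on a logarithmic scale, averaging replicates with inverse-variance weights. The logarithm is base 2. Enrichment came from Illumina sequencing of input and output libraries after one triplicate round of in vitro selection, which included frozen incubation at −7 °C, of PCR-built, transcribed mutant libraries of each subunit of a heterodimeric triplet polymerase ribozyme. Only genotypes with ≥10 input reads and ≥1 read per output were kept.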

Point of comparison: C35U C38G U56A, “polymerase ribozyme fitness (log ratio)” value -1.43. Against it:
- C35U G62A G83U G86C C125G A142U — lower, ≤ -4.2
- C36A G92A U101A — lower, ≤ -4.2
- C36A C85U A89U C96G — lower, ≤ -4.2
- C36A C75U C95A C129G — lower, ≤ -4.2
- C35U G50C C76A C79G C87G A142C G152U — lower, ≤ -4.2
- C35U G92U C116U — higher, 0.616
- C35U U61A A66C C69U — lower, ≤ -4.2
- C35U G58C U90G U104A G126A U135A U145G — lower, ≤ -4.2
- C36A A40C G83C A106G U144A — lower, ≤ -4.2
- C35U A49G G50A U77G C96U G143C A150G U151A — lower, ≤ -4.2
- C35U A41C U53A C75G C114U G136U — lower, ≤ -4.2
- C35U U55A C96U — higher, -0.218
- C35U G136A G143U — lower, -3.68
- C35U U53A — higher, -0.557
- C35U U45A G83C C85G A97G G141C — lower, ≤ -4.2
- C35U G50A C87G G124A — lower, -3.99
- C36A A66C — lower, ≤ -4.2
- C35U A47G C99G G152A — lower, -3.48
- C36A A64U A107U U139A G140C — lower, ≤ -4.2
- C35U G58A A60C C93G C96U C105U C116U — lower, ≤ -4.2
- C35G G68A A91U U144C — lower, ≤ -4.2
- C35U C75G U127C — lower, ≤ -4.2
- C35G G62A G68A C69G G71C C72A A73G G74C A91C C114U C132U — lower, ≤ -4.2
- C36A C79U — lower, ≤ -4.2
- C35U A49C C79A C87A A119U — lower, ≤ -4.2
- C35G U139C — lower, ≤ -4.2
- C36A G46C C79U G88U U151A — lower, ≤ -4.2
- C36A C96U U111G — lower, ≤ -4.2
- C35G U55G C85G U144A — lower, ≤ -4.2
- C35U C43G C93A C103G — lower, ≤ -4.2
- C35U G86U — the same, -1.43
- C35G U78G C99A — lower, ≤ -4.2
- C35U G136A — higher, 0.0897
- C35G U55G G81A A98G U102A — lower, ≤ -4.2
- C35U A106U A142U — lower, -4.15
- C35U C95U C96G — within 0.2 log units, -1.52
- C35U C36A U55G U127A — lower, -3.9
- C36A A60C G71C C79A G84A A91G C93G — lower, ≤ -4.2
- C35U G94A C108A A150U — lower, ≤ -4.2
- C36A A121U — lower, -3.23
- C35U C129U — higher, -0.479
- C35U A115U — within 0.2 log units, -1.54
- C35U U127G — lower, -4.01
- C35U C51U C85A — lower, -3.1
- C35G G68C C125A — lower, -4.18
- C35U A73G — higher, -0.161
- C35U G140C — lower, -4.13
- C35U G92U — higher, -0.627
- C36A A47C G59U — lower, ≤ -4.2
- C36A A98U A107U C131A U146G — lower, ≤ -4.2
- C35G G59A C85A A106G G126U — lower, ≤ -4.2
- C35U G92A C96A — lower, ≤ -4.2
- C36A C96A G133A — lower, ≤ -4.2
- C35U C95G — higher, -1.22
- C35U C76G A89U A97G — lower, ≤ -4.2
- C35G U55G U61A C79G C93G A107G — lower, ≤ -4.2
- C35U A52G A60C A121U — lower, -3.29
- C35U G124U — within 0.2 log units, -1.25
- C35U C54A G84A U146C — higher, -1
- C35U C76U C99U — within 0.2 log units, -1.5
- C35U A52C U55A C93U C149A — lower, ≤ -4.2
- C35U A52C C123U — within 0.2 log units, -1.31
- C36A G50C U53A U56A C93U A115U — lower, ≤ -4.2
- C35U G59C G81A G83A A110G G133C — lower, ≤ -4.2
- C35U C149U — within 0.2 log units, -1.57
- C35U U101G A110U A138G — lower, ≤ -4.2
- C36A C93U G100U — lower, ≤ -4.2
- C36A A52C C85G A120G A122U U148A — lower, -3.85
- C35U G88A — lower, -4.1
- C35U A49G G88U C93G — lower, ≤ -4.2
- C36A C95U — lower, -3.7
- C36A C87G A107C — lower, ≤ -4.2
- C35G U55G G67A G92U — lower, ≤ -4.2
- C35U G86U C95G — lower, -3.9
- C36A G46A C96U U148A — lower, ≤ -4.2
- C35U A89U C95A G126A A142C — lower, ≤ -4.2
- C36A A73G C96U A121C C131U — lower, ≤ -4.2
- C35U A49G G70A C95G C105A — lower, ≤ -4.2
- C36A G42A U45G G81A C87A A137C — lower, ≤ -4.2
- C35U G42A G65C U77G C87A U101G G143A U151A — lower, ≤ -4.2
- C35U C118U — higher, -0.573
- C35U G58C G71A C93G — lower, -3.09
- C35U C116A — higher, -0.104
